Source: patent US12383631 (BRIGHT PEAK THERAPEUTICS, dated 2025)
Each block holds one binder with its values, some of them ahead of it.

What was measured:
[1] = molecular target: T1, Biotinylated Recombinant Human PD-1/CD279-Fc Chimera, carrier-free (Biolegend #789406) (human, UniProt Q15116 25-167, biotinylated); assay: ELISA; antibody coated, biotinylated PD-1-Fc titrated
T1 construct: bought; also called recombinant biotinylated human PD-1; Fc part of the bought chimera not given
Method: (§1) The interaction of the unmodified antibodies and corresponding IL-18 immunocytokines with relevant immune cell associated antigen are measured by ELISA assay. For these studies, Corning high-binding half-area plates (Fisher Scientific, Reinach, Switzerland) are coated overnight at 4° C. with 25 μl of unmodified antibodies corresponding IL-18 immunocytokines at 5 μg/ml in PBS. Plates are then washed four times with 100 μl of PBS-0.02% Tween20. Plate surfaces are blocked with 25 μl of PBS-0.02% Tween20-1% BSA at 37° C. during 1 h. Plates are then washed four times with 100 μl of PBS-0.02% Tween20. […] Plates are then washed four times with 100 μl of PBS-0.02% Tween20. Twenty-five microliters of Streptavidin-Horseradish peroxidase (#RABHRP3, Merck, Buchs, Switzerland) diluted at 1:500 into PBS-0.02% Tween20-0.1% BSA are added to each well and incubated at Room Temperature during 30 min. Plates are then washed four times with 100 μl of PBS-0.02% Tween20. Fifty microliters of TMB substrate reagent (#CL07, Merck, Buchs, Switzerland) are added to each well and incubated at 37° C. during 5 min. After 5 min at 37° C., Horseradish peroxidase reaction is stopped by adding 50 μl/well of 0.5M H_2SO_4 stop solution. ELISA signal is then measured at 450 nm on an ENSPTRE® plate reader from Perkin Elmer (Schwerzenbach, Switzerland).

[2] = molecular target: T1, Biotinylated Recombinant Human …; assay: ELISA: antibody coated on the plate (5 ug/ml), biotinylated human PD-1/CD279-Fc titrated in solution (x-axis), streptavidin-HRP/TMB, 450 nm
Method: as §1

[3] = molecular target: T2, His-tagged human PD1 (R&D #8986-PD) (human, UniProt Q15116 25-167); assay: BLI (Octet), antibody on AHC sensor, His-tagged PD-1 as analyte
T2 construct: bought; not shown: His tag
Text: (§2) Based on Bio-Layer Interferometry (BLI), Octet® BLI systems enable real-time, label-free analysis for the determination of kinetics and affinity of a ligands to its receptor. Here anti-human IgG FC Capture (AHC) sensors are loaded with the test items (ICs). Sensors are first dipped into a kinetic buffer for baseline measurement, then into an analyte solution, here human PD1, to allow association and again into a buffer solution where the analyte is allowed to come off the ligand (dissociation). Several concentrations of analyte are run in parallel and enable the calculation of affinity parameters: Ka, Kd, KD.
(§3) Typically, first, the sensors are regenerated by 3 cycles of dipping into 10 mM glycine solution at pH=2 for 20 seconds, followed by 20 second kinetics buffer and a final 60 seconds in kinetics buffer to establish the initial signal (baseline). Second, the loading column will contain the ligand, here the unmodified PD-1 antibodies and of IL-18 polypeptide conjugated PD-1 antibody, at a fixed concentration determined in the loading scout experiment (20 ug/mL). Then another wash/baseline step allows non immobilized proteins to be washed away. The association column will contain the 2-fold dilution series of the analyte (His-tagged human PD1, R&D #8986-PD) including a no analyte control. […] The dissociation designates the sensors to return to previous baseline column with kinetics buffer. After acquisition, the data is analyzed with Data Analysis Studio software (Sartorius). Data sets are first preprocessed by subtracting references samples and aligning curves on the baseline step. Group fitting is then applied to the data series and kinetics parameters are calculated.

[4] = molecular target: T1, Biotinylated Recombinant Human …; assay: ELISA; immunocytokine coated, biotinylated PD-1-Fc titrated
Method: as §1

[5] = molecular target: T2, His-tagged human PD1 (R&D #8986-PD); assay: BLI (Octet), immunocytokine on AHC sensor, His-tagged PD-1 as analyte
Text: as §2, §3

[6] = molecular target: T1, Biotinylated Recombinant Human …; assay: ELISA: immunocytokine coated on the plate (5 ug/ml), biotinylated human PD-1/CD279-Fc titrated in solution (x-axis), streptavidin-HRP/TMB, 450 nm
Method: as §1

[7] = molecular target: T3, recombinant Human Fc gamma RIIA/CD32a (H167) Protein (R&D systems, 9595-CD-050) (human, UniProt P12318 36-218); assay: ELISA; antibody coated, receptor titrated, anti-His-HRP
T3 construct: detected with an anti-His antibody; tag not described; also called FcγRIIa (CD32a)
T3 sequence (looked up): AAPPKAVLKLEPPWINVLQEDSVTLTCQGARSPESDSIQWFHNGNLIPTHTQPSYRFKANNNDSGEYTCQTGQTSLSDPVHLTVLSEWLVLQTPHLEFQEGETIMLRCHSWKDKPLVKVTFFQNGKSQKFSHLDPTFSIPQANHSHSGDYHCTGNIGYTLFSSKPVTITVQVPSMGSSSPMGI
Method: (§4) The interaction of the unmodified and of conjugated antibodies with human Fc gamma receptors I (FcγRI/CD64), with human Fc gamma receptors IIa (FcγRIIa/CD32a), with inhibitory human Fc gamma receptors IIb (FcγRIIb/CD32b), and with human Fc gamma receptors III FcγRIIIa/CD16 were measured by ELISA.
(§5) Briefly, Corning high-binding half-area plates (Fisher Scientific, Reinach, Switzerland) were coated overnight at 4° C. with 25 μl of unmodified and of conjugated anti-PD1 antibodies at 2.5 μg/ml in PBS. Plates were then washed four times with 100 μl of PBS-0.02% Tween20. Plates surfaces were blocked with 25 μl of PBS-0.02% Tween20-1% BSA at 37° C. during 1 h. Plates were then washed four times with 100 μl of PBS-0.02% Tween20. Then twenty-five microliters of either recombinant Human Fc gamma RI/CD64 Protein (R&D systems, 1257-FC-050, CF), recombinant Human Fc gamma RIIA/CD32a (H167) Protein (R&D systems, 9595-CD-050, CF), recombinant Human Fc gamma RIIB/CD32b Avi-tag Protein (R&D systems, AVI1875-050, CF), or recombinant Human Fc gamma RIIIA/CD16a Protein (R&D systems, 4325-FC-050; CF) were added in five-fold serial dilutions ranging from 1000 nM to 0.001 nM into PBS-0.02% Tween20-0.1% BSA and incubated at 37° C. during 2 h. Plates were then washed four times with 100 μl of PBS-0.02% Tween20. Twenty-five microliters of a 1/500 HRP-anti-His antibody in PBS—0.02% Tween20-0.1% BSA (R&D systems, anti-HIS—HRP Ab, #MAB050H) were added to each well and plates were incubated at Room Temperature during 1 h. Plates were then washed four times with 100 μl of PBS-0.02% Tween20. Fifty microliters of TMB substrate reagent (#CL07, Merck, Buchs, Switzerland) were added to each well and incubated at 37° C. during 5 min. After 5 min at 37° C., Horseradish peroxidase reaction was stopped by adding 50 μl/well of 0.5M H2SO4 stop solution. ELISA signal was then measured at 450 nm on an EnSpire plate reader from Perkin Elmer (Schwerzenbach, Switzerland). Binding Affinity of Reference Antibodies and Immunocytokines with Human Fc Gamma Receptors as Measured by ELISA

[8] = molecular target: T4, recombinant Human Fc gamma RIIIA/CD16a Protein (R&D systems, 4325-FC-050) (human, UniProt P08637 17-208); assay: as above
T4 construct: detected with an anti-His antibody; tag and allotype not described; also called FcγRIIIa (CD16)
Method: as §4, §5

[9] = molecular target: T5, recombinant Human Fc gamma RIIB/CD32b Avi-tag Protein (R&D systems, AVI1875-050) (human, UniProt P31994 46-217); assay: as above
T5 construct: also called FcγRIIb (CD32b); not shown: Avi-tag
T5 sequence (looked up): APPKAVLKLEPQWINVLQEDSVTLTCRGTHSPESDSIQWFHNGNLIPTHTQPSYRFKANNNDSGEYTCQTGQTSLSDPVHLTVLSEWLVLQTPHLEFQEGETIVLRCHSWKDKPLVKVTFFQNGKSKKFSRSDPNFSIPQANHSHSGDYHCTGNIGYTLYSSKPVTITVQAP
Method: as §4, §5

[10] = molecular target: T6, recombinant Human Fc gamma RI/CD64 Protein (R&D systems, 1257-FC-050) (human, UniProt P12314 16-288); assay: as above
T6 construct: detected with an anti-His antibody; tag not described; also called FcγRI/CD64; human Fc gamma receptor I
Method: as §4, §5

[11] = molecular target: T7, recombinant biotinylated human FcRn (human, UniProt P55899 24-297; P61769 21-119, limits assumed, biotinylated); assay: AlphaLISA competition at pH 6; competitor: human IgG on acceptor beads
T7 construct: also called human neonatal Fc receptor (FcRn)
Method: The interaction of the unmodified and of conjugated anti-PD1 antibodies with the human neonatal Fc receptor (FcRn) at pH 6 was measured using the AlphaLISA® Human FcRn Binding Kit (AL3095C) from Perkin Elmer (Schwerzenbach, Switzerland).
After 90 min at 23° C. in the dark, AlphaLISA® signal was measured on an EnSpire plate reader (Excitation at 680 nm, Emission at 615 nm) from Perkin Elmer (Schwerzenbach, Switzerland). Binding Affinity of Reference Antibodies and Immunocytokines with the Human Neonatal Fc Receptor as Measured by AlphaLISA

Kd [1]: 0.0407 nM | EC50 (read off the curve) [2]: ~0.06 nM | Kd [3]: 23.5 nM | koff [3]: 0.0077 s⁻¹ | kon [3]: 342000 M⁻¹ s⁻¹
B1: LZM-009 (antibody, V domains shown)
VH: QVQLVQSGAEVKKPGASVKVSCKASGYTFTSYYMYWVRQAPGQGLEWMGGVNPSNGGTNFNEKFKSRVTITADKSTSTAYMELSSLRSEDTAVYYCARRDYRYDMGFDYWGQGTTVTVSS
VL: EIVLTQSPATLSLSPGERATISCRASKGVSTSGYSYLHWYQQKPGQAPRLLIYLASYLESGVPARFSGSGSGTDFTLTISSLEPEDFATYYCQHSRELPLTFGTGTKVEIK
notes: also called LZM-009 anti-PD-1 antibody

Kd [4]: 0.0467 nM | Kd [5]: 11.5 nM | koff [5]: 0.00479 s⁻¹ | kon [5]: 454000 M⁻¹ s⁻¹ | EC50 (read off the curve) [6]: ~0.07 nM
B2: Composition A (LZM-009 conjugated to IL-18 polypeptide of SEQ ID NO: 30) (other)
VH: B1 VH
VL: B1 VL
chain: YFGKLKSKLSIIRNLNDQVLFIDQGNRPLFEDMTDSDARDNAPRTIFIISMYADSQPRGMAVAISVKCEKISTLSAENKIISFKEMNPPDNIKDTKSDIIFFQRSVPGHDNKMQFESSSYEGYFLAAEKERDLFKLILKKEDELGDRSIMFTVQNED

Kd [7]: 160 nM | Kd [8]: 234 nM | Kd [9]: 233 nM | Kd [10]: 2.34 nM | Kd [11]: 8.31 nM
B3: Durvalumab/Imfinzi (antibody, human IgG1, kappa)
heavy: EVQLVESGGGLVQPGGSLRLSCAASGFTFSRYWMSWVRQAPGKGLEWVANIKQDGSEKYYVDSVKGRFTISRDNAKNSLYLQMNSLRAEDTAVYYCAREGGWFGELAFDYWGQGTLVTVSSASTKGPSVFPLAPSSKSTSGGTAALGCLVKDYFPEPVTVSWNSGALTSGVHTFPAVLQSSGLYSLSSVVTVPSSSLGTQTYICNVNHKPSNTKVDKRVEPKSCDKTHTCPPCPAPEFEGGPSVFLFPPKPKDTLMISRTPEVTCVVVDVSHEDPEVKFNWYVDGVEVHNAKTKPREEQYNSTYRVVSVLTVLHQDWLNGKEYKCKVSNKALPASIEKTISKAKGQPREPQVYTLPPSREEMTKNQVSLTCLVKGFYPSDIAVEWESNGQPENNYKTTPPVLDSDGSFFLYSKLTVDKSRWQQGNVFSCSVMHEALHNHYTQKSLSLSPGK
light: EIVLTQSPGTLSLSPGERATLSCRASQRVSSSYLAWYQQKPGQAPRLLIYDASSRATGIPDRFSGSGSGTDFTLTISRLEPEDFAVYYCQQYGSLPWTFGQGTKVEIKRTVAAPSVFIFPPSDEQLKSGTASVVCLLNNFYPREAKVQWKVDNALQSGNSQESVTEQDSKDSTYSLSSTLTLSKADYEKHKVYACEVTHQGLSSPVTKSFNRGEC
notes: also called MEDI-4736
